Assay results from article PMC10058238, “Mechanism of sphingolipid homeostasis revealed by structural analysis of Arabidopsis SPT-ORM1 complex” (Science Advances, 2023).

How the values were obtained:
purified protein [1] = substrate: N[C@@H](CO)C(=O)O; assay: purified protein; settings: 100 μM palmitoyl-CoA, 25 μM PLP, pH 7.5, 30 °C, active site in LCB2a/LCB1
purified protein [2] = substrate: CCCCCCCCCCCCCCCC(=O)SCCNC(=O)CCNC(=O)[C@H](O)C(C)(C)COP(=O)(O)OP(=O)(O)OC[C@H]1O[C@@H](n2cnc3c(N)ncnc32)[C@H](O)[C@@H]1OP(=O)(O)O; assay: purified protein; type: biochemical, Arabidopsis thaliana; settings: 100 mM L-serine, 25 μM PLP, pH 7.5, 30 °C, active site in LCB2a/LCB1

B1: AtSPT-ORM1 complex (LCB1, LCB2a, SPTssa, ORM1) (Arabidopsis thaliana) (protein)
chain 1: MITIPYLTAVSTYFSYGLLFAFGQLRDFFRRFIDWWFTSNLQGYAPICLGHEDFYIRRLYHRIQDCFERPISSAPDAWFDVVERYSNDNNKTLKRTTKTSRCLNLGSYNYLGFGSFDEYCTPRVIESLKKFSASTCSSRVDAGTTSVHAELEECVTRFVGKPAAVVFGMGYATNSAIIPVLIGKGGLIISDSLNHSSIVNGARGSGATIRVFQHNTPSHLERVLREQIAEGQPRTHRPWKKIIVVVEGIYSMEGEICHLPEVVAICKKYKAYVYLDEAHSIGAIGKTGKGICELLGVDTADVDVMMGTFTKSFGSCGGYIAGSKELIQYLKHQCPAHLYATSIPTPSAQQIISAIKVILGEDGSNRGAQKLARIRENSNFFRAELQKMGFEVLGDNDSPVMPIMLYNPAKIPAFSRECLRQKVAVVVVGFPATPLLLARARICISASHSREDLIRALKVISKVGDLSGIKYFPAEPKKIEQSKNDIKLD
chain 2: MANLYVKAVPPPDMNRNTEWFMYPGVWTTYMLILFFGWLVVLSVSGCSPGMAWTVVNLAHFVVTYHSFHWMKGTPFADDQGIYNGLTWWEQMDNGQQLTRNRKFLTLVPVVLYLIASHTTDYRHPWLFLNTLAVMVLVVAKFPNMHKVRIFGINGDK
chain 3: MASNLVEMFNAALNWVTMILESPSARVVLFGVPIRGHFFVEGLLGVVIIILLTRKSYKPPKRPLTEQEIDELCDEWVPEPLIPPITEDMKHEPPVLESAAGPHTTVNGKDVVNFASANYLGLIGHEKLLESCTSALEKYGVGSCGPRGFYGTIDVHLDCETRISKFLGTPDSILYSYGLSTMFSTIPCFCKKGDVIVADEGVHWGIQNGLQLSRSTIVYFKHNDMESLRITLEKIMTKYKRSKNLRRYIVAEAVYQNSGQIAPLDEIVKLKEKYRFRVILDESNSFGVLGRSGRGLAEHHSVPIEKIDVVTAAMGHALATEGGFCTGNARIIDYQRLSSSGYVFSASLPPYLASAAITAIDVIDQNPDMLVKLKQNVALLWKGLSDIKGMSLTSNRESPIVFLKLEKSSGSAKDDLLLLEKMADRALKEDSLLVVSSKRSFLDKCRLPVGIKLYVSAGHSESDLLKASESLKRLASELLLKS
notes: full-length codon-optimized cDNAs; N-terminal Flag on SPTssa, other chains untagged; HEK293F, GDN; dimer of 1:1:1:1 protomers; endogenous ceramide copurifies; with Long chain base biosynthesis protein 1; Serine palmitoyltransferase small subunit A
Km (purified protein [1]): 10.44 ± 0.88 mM
K0.5 (purified protein [2]): 69.05 ± 6.13 µM

B2: AtSPT complex (LCB1, LCB2a, SPTssa) (Arabidopsis thaliana) (protein)
chain 1: B1 chain 1
chain 2: B1 chain 3
notes: full-length codon-optimized cDNAs; N-terminal Flag on SPTssa, other chains untagged; HEK293F, GDN; without ORM1; with Serine palmitoyltransferase small subunit A
Km (purified protein [1]): 7.33 ± 0.65 mM
K0.5 (purified protein [2]): 8.29 ± 0.80 µM
